Experimental findings from patent US20220324955A1 are described below.

The target in the experiment is human neonatal Fc-receptor (FcRn) (human) (UniProt P55899). The experiment can be described thus: FcRn affinity column chromatography.
human neonatal Fc-receptor (FcRn) (human), sequence (P55899 24-297 limits assumed, chain 1 of 2): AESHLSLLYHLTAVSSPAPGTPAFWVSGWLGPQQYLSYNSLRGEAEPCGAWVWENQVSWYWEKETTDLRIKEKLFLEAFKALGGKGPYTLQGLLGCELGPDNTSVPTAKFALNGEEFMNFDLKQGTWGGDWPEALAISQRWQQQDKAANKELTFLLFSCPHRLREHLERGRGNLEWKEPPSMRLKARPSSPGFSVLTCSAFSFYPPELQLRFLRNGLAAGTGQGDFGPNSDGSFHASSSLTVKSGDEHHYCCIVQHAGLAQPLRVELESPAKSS
human neonatal Fc-receptor (FcRn) (human), sequence (P61769 21-119 limits assumed, chain 2 of 2, further chain): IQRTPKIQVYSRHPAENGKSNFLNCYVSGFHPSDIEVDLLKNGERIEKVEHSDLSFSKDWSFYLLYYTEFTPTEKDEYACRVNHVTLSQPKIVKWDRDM

Regarding “IgG1 Fc-region with L234A/L235A/P329G and symmetric Y436A”, the FcRn-affinity column retention time came to 41.3 min.

Take “anti-HER2 antibody, symmetric mutation E430H”: the retention time is 46.4 min.

Substance “anti-HER2 antibody, symmetric mutation K288E” showed a retention time of 45.2 min.

Take “anti-HER2 antibody, symmetric mutation K290H”: the retention time was 46.2 min.

“anti-HER2 antibody, symmetric mutation K317H” displayed a retention time of 46.3 min.

In turn, “anti-HER2 antibody, symmetric mutation L309H” showed a retention time of 45.5 min.

Regarding “anti-HER2 antibody, symmetric mutation N434H”, the retention time came out at 52 min.

Substance “anti-HER2 antibody, symmetric mutation Q311H” returned a retention time of 46.3 min.

“anti-HER2 antibody, symmetric mutation R255D” had a retention time of 41.4 min.

For the substance “anti-HER2 antibody, symmetric mutation T256H”, the retention time came to 46 min.
